From publication PMC9903292, “A Reductive Aminase Switches to Imine Reductase Mode for a Bulky Amine Substrate” (ACS Catalysis, 2023)

Assays:
IR77 (wt-IR77) = target: T1, IR77 (wt-IR77) (Ensifer adhaerens, UniProt A0A0L8BGL4, A208N); assay: X-ray crystallography; format: binding; details: cofactor site at the dimer interface; P2_12_12_1, one open and one closed active site
T1 construct: gene AC244_29830; domain-swapped homodimer, two active sites at the interface

[1] = substrate: O=C1CCCCC1; assay: UV spectrophotometry, NADPH oxidation; format: biochemical, Ensifer adhaerens; details: co-substrate pyrrolidine b at constant concentration
purified protein [2] = substrate: c1ccc2c(c1)CNC2; assay: purified protein; details: co-substrate 10 mM cyclohexanone, NADPH
purified protein [3] = substrate: C1CCNC1; assay: purified protein; details: NADPH
[4] = substrate: O=C1CCCCC1; assay: UV spectrophotometry, NADPH oxidation; format: biochemical, Ensifer adhaerens; details: co-substrate pyrrolidine b at constant concentration; remark: listed apart in the source
Description: UV spectrophotometry, NADPH oxidation on IR77 (wt-IR77)

[5] = reductive amination, 16 mM and kcat 0.25
[6] = imine probably formed in solution and then reduced by the enzyme
[7] = co-substrate 10 mM cyclohexanone, reductive amination
[8] = imine probably formed in solution
[9] = co-substrate cyclohexanone at constant concentration

Row | Molecule | Km (purified protein [2]; [8]) | kcat (purified protein [2]; [8]) | Km (purified protein [3]; [9]) | kcat (purified protein [3]; [9]) | kcat/Km (purified protein [3]; [9]) | Km [4] | kcat [4] | kcat/Km [4] | further results
1 | NC(=O)c1ccc[n+]([C@@H]2O[C@H](COP(=O)(O)OP(=O)(O)OC[C@H]3O[C@@H](n4cnc5c(N)ncnc54)[C@H](OP(=O)(O)O)[C@@H]3O)[C@@H](O)[C@H]2O)c1 [NADP^+] | – | – | – | – | – | – | – | – | X-ray crystallography (IR77 (wt-IR77)): electron density for the cofactor NADP^+ was again clearly visible within the active sites
2 | IR77 (wt-IR77) (Ensifer adhaerens) (protein, domain-swapped homodimer, two active sites at the interface) MKPSISVLGTGRMGSALARALLQAGYRTVVWNRTSEKAEPLAALGATVAPTVRQAIDASGIVIVNVSDYAATSTLLRASDVTPGLRGKLIVELTSGTPEGARETSQWTAAHGARYLDGAILATPDFIGTDAGTILLSGALEPFAANEDVFRALGGNVQHIGTEPGLANALDSAVLALMWGALFGGLHAIAVCRAEEIDLGELGRQWAATAPVVEGLVADLIKRTSAGRFVSDAETLSSISPHYGAFQHLKELMEARRIDRTVVDGYDAIFRRAIASGHLHDDFAALSQFMGKAEQP | – | – | – | – | – | – | – | – | Km [1, 5]: 15 mM; kcat [1, 5]: 0.24 s⁻¹; kcat/Km [1, 5]: 16 M⁻¹ s⁻¹; Km (purified protein [2]; [6]): 0.61 mM; kcat (purified protein [2]; [6]): 0.30 s⁻¹; Km (purified protein [3]; [7]): 17 mM; kcat (purified protein [3]; [7]): 0.12 s⁻¹; kcat/Km (purified protein [3]; [7]): 7.2 M⁻¹ s⁻¹
3 | IR77 (wt-IR77) (Ensifer adhaerens; A208S) (protein, domain-swapped homodimer, two active sites at the interface) MKPSISVLGTGRMGSALARALLQAGYRTVVWNRTSEKAEPLAALGATVAPTVRQAIDASGIVIVNVSDYAATSTLLRASDVTPGLRGKLIVELTSGTPEGARETSQWTAAHGARYLDGAILATPDFIGTDAGTILLSGALEPFAANEDVFRALGGNVQHIGTEPGLANALDSAVLALMWGALFGGLHAIAVCRAEEIDLGELGRQWASTAPVVEGLVADLIKRTSAGRFVSDAETLSSISPHYGAFQHLKELMEARRIDRTVVDGYDAIFRRAIASGHLHDDFAALSQFMGKAEQP | 0.60 mM | 0.23 s⁻¹ | 9.7 mM | 0.21 s⁻¹ | 22 M⁻¹ s⁻¹ | – | – | – | Km ([1]; kcat 0.44): 9.6 mM; kcat ([1]; kcat 0.44): 0.43 s⁻¹; kcat/Km ([1]; kcat 0.44): 45 M⁻¹ s⁻¹
4 | IR77 (wt-IR77) (Ensifer adhaerens; A208N) (protein, domain-swapped homodimer, two active sites at the interface) MKPSISVLGTGRMGSALARALLQAGYRTVVWNRTSEKAEPLAALGATVAPTVRQAIDASGIVIVNVSDYAATSTLLRASDVTPGLRGKLIVELTSGTPEGARETSQWTAAHGARYLDGAILATPDFIGTDAGTILLSGALEPFAANEDVFRALGGNVQHIGTEPGLANALDSAVLALMWGALFGGLHAIAVCRAEEIDLGELGRQWANTAPVVEGLVADLIKRTSAGRFVSDAETLSSISPHYGAFQHLKELMEARRIDRTVVDGYDAIFRRAIASGHLHDDFAALSQFMGKAEQP | 0.94 mM | 0.28 s⁻¹ | – | – | – | – | – | – | Km [1]: 26 mM; kcat [1]: 0.5 s⁻¹; kcat/Km [1]: 20 M⁻¹ s⁻¹
5 | IR77 (wt-IR77) (Ensifer adhaerens; A119S) (protein, domain-swapped homodimer, two active sites at the interface) MKPSISVLGTGRMGSALARALLQAGYRTVVWNRTSEKAEPLAALGATVAPTVRQAIDASGIVIVNVSDYAATSTLLRASDVTPGLRGKLIVELTSGTPEGARETSQWTAAHGARYLDGSILATPDFIGTDAGTILLSGALEPFAANEDVFRALGGNVQHIGTEPGLANALDSAVLALMWGALFGGLHAIAVCRAEEIDLGELGRQWAATAPVVEGLVADLIKRTSAGRFVSDAETLSSISPHYGAFQHLKELMEARRIDRTVVDGYDAIFRRAIASGHLHDDFAALSQFMGKAEQP | – | – | 23 mM | 0.09 s⁻¹ | 4 M⁻¹ s⁻¹ | 16 mM | 0.25 s⁻¹ | 16 M⁻¹ s⁻¹ | –
6 | IR77 (wt-IR77) (Ensifer adhaerens; C192I) (protein, domain-swapped homodimer, two active sites at the interface) MKPSISVLGTGRMGSALARALLQAGYRTVVWNRTSEKAEPLAALGATVAPTVRQAIDASGIVIVNVSDYAATSTLLRASDVTPGLRGKLIVELTSGTPEGARETSQWTAAHGARYLDGAILATPDFIGTDAGTILLSGALEPFAANEDVFRALGGNVQHIGTEPGLANALDSAVLALMWGALFGGLHAIAVIRAEEIDLGELGRQWAATAPVVEGLVADLIKRTSAGRFVSDAETLSSISPHYGAFQHLKELMEARRIDRTVVDGYDAIFRRAIASGHLHDDFAALSQFMGKAEQP | – | – | 9.0 mM | 0.1 s⁻¹ | 11 M⁻¹ s⁻¹ | 16 mM | 0.33 s⁻¹ | 21 M⁻¹ s⁻¹ | –
